Data reported in patent publication US12180473B2, “Chimeric RNA-driven genomic rearrangement in mammalian cells” (priority 2018, dated 2024).
Entries after “also recorded” stand apart in the source; their conditions may differ.

System: TMPRSS2-ERG fusion
Assay: RT-PCR detection of induced endogenous TMPRSS2-ERG fusion transcript in LNCaP cells expressing input RNA
Conditions: for induction of endogenous TMPRSS2-ERG fusion transcript (RT-PCR): LNCaP cells transfected with input RNA plasmid, DHT for 3 days; for Cell line(s) identified: fusion gene partners TMPRSS2-ERG, LNCaP

| Molecule | induction of endogenous TMPRSS2-ERG fusion transcript (RT-PCR) | Cell line(s) identified | induction of endogenous TMPRSS2-ERG fusion transcript (RT-PCR) (listed as antisense-3) |
| --- | --- | --- | --- |
| Sense-D1: input RNA, SEQ ID NO: 33 (nucleic acid) sense: TGTGCTCGCTTCGGCAGCACATATACTAACATTGGAACGATCCTGCAGCGGGTGTGAGGAGCGCGGCGCGGCAGGTGAGTGCGCCCGAGGGTCGAGCGCTCAGGGATTCTGGACACTTATCCCTTCATCTTTCTTCTGTCTCTTCCCTCTACCAGCCTCTCTCTCTCTGTCTCTC | failed to induce fusion transcripts |  |  |
| Antisense-D2: input RNA, SEQ ID NO: 22 (nucleic acid) antisense: TGTGCTCGCTTCGGCAGCACATATACTAACATTGGAACGATCCTGCAGGAGAGACAGAGAGAGAGAGGCTGGTAGAGGGAAGAGACAGAAGAAAGATGAAGGGATAAGTGTCCAGAATCCCTGCCCAGCACTCTCCCAGCACCCCGGGAGGCGCCCTGCCCGGCTGGCCCCAGCG | complete loss of induction |  |  |
| Sense-B1: input RNA, SEQ ID NO: 31 (nucleic acid) sense: TGTGCTCGCTTCGGCAGCACATATACTAACATTGGAACGATCCTGCAGCGGAGGCGGAGGGCGAGGGGCGGGGAGCGCCGCCTGGAGCGCGGCAGGTGAGGCAGTTTCTCCATCTGGAAATGCTCCCCACCATATTGATTTACCCAGTACACCCCATTCTTCAAGGCTCAGGCCA | failed to induce fusion transcripts |  |  |
| Antisense-C3: input RNA, SEQ ID NO: 20 (nucleic acid) antisense: TGTGCTCGCTTCGGCAGCACATATACTAACATTGGAACGATCCTGCAGGTCCTGGTAACACTATTCATGCACTAACAAGTTGGTTGCCAGTGAGACTTGATTATTATGACTCTGGGAGTGCTGCCCAGGCGGGGGCCGTGGAGGGCAGGCGGACTAGGAGCCAGCTTTGGGGACC | complete loss of induction |  |  |
| Antisense-B1: input RNA, SEQ ID NO: 15 (nucleic acid) antisense: TGTGCTCGCTTCGGCAGCACATATACTAACATTGGAACGATCCTGCAGTGGCCTGAGCCTTGAAGAATGGGGTGTACTGGGTAAATCAAAATGGTGGGGAGCATTTCCAGATGGAGAAACTGCCTCACCTGCCGCGCTCCAGGCGGCGCTCCCCGCCCCTCGCCCTCCGCCTCCG | clearly induced fusion transcripts | LNCaP |  |
| Antisense-D3: input RNA, SEQ ID NO: 23 (nucleic acid) antisense: TGTGCTCGCTTCGGCAGCACATATACTAACATTGGAACGATCCTGCAGTGAAGGGATAAGTGTCCAGAATCCCTGGATCTGGGATGGAATAAAGGATCTGGATGGTAAACGGAGAGTGCTGGGAGCGCTCGACCCTCGGGCGCACTCACCTGCCGCGCCGCGCTCCTCACACCCG | complete loss of induction |  |  |
| Antisense-3: input RNA, SEQ ID NO: 6 (nucleic acid) antisense: TGTGCTCGCTTCGGCAGCACATATACTAACATTGGAACGATCCTGCAGCTTGAGCCATTCACCTGGCTAGGGTTACATTCCATATTGATGGTGACCCTGGCTGGGGGTTGAGACAGCCAATCCCGGACCCCGAGCCGGGACCCTGGTACCGGCGCCGCTCACCTGCCGCGCTCCAGGCGGCGCTCCCCGCCCCTCGCCCTCCGCCAGACAGGAGTGAGAGATGGAAGCTCGCGCCTACTC | unable to induce fusion |  | inability of antisense-3 to induce; also recorded: did not |
| Sense-C1: input RNA, SEQ ID NO: 32 (nucleic acid) sense: TGTGCTCGCTTCGGCAGCACATATACTAACATTGGAACGATCCTGCAGGGTCCCCAAAGCTGGCTCCTAGTCCGCCTGCCCTCCACGGCCCCCGCCTGGGGTTAGTGCATGAAGAGTGTTACCAGGACGGGGTCTACCCAGTGCTCATCTATGTCATAGGAAGAGCATGAGCTCA | failed to induce fusion transcripts |  |  |
| Antisense-F1: input RNA, SEQ ID NO: 25 (nucleic acid) antisense: TGTGCTCGCTTCGGCAGCACATATACTAACATTGGAACGATCCTGCAGAATGGATGAATACATAAAATAAATTGTGGTGGATATATACAACGGAATATCATTTAGCCTTTATTATTATTGAGAACTGTGCCGAGCCGGGCAGGACAGGATGAGGTGGACCGAAGCGCCCAGGTGC | failed to induce fusion transcripts |  |  |
| Antisense-1: input RNA, SEQ ID NO: 4 (nucleic acid) antisense: TCAGATCGCCTGGAGACGCCATCCACGCTGTTTTGACCTCCATAGAAGACACCGGGACCGATCCAGCCTCCCCTCGAAGCTGATCCTGAGAACTTCAGGCTCCTGGGCAACGTGCTGGTCTGTGTGCTGGCCCATCACTTTGGCAAAGAATTCCTTGAGCCATTCACCTGGCTAGGGTTACATTCCATTTTGATGGTGACCCTGGCTGGGGGTTGAGACAGCCAATCCTGCTGAGGGACGCGTGGGCTCATCTTGGAAGTCTGTCCATAGTCGCTGGAGGAGGACGCGGTCATCTCTGTCTTAGCCAGGTGTGGCGTTCCGTAGGCACACTCAAACAACGACTGGTCCTCACTCACAACTGATAAGGCTTCCTGCCGCGCTCCAGGCGGCGCTCCCCGCCCCTCGCCCTCCGCCTCCGCCTCCGCCTCCTGCTTAGCTCGCGCCTACTCAAGCTTATCGATACCGTCGACCTCGAGGGCCCAGATCTAATTCACCCCACCAGTGCAGGCTGCCTATCAGAAAGTGGTGGCTGGTGTGGCTAATGCCCTGGCCCACAAGTATCACTAAGCTCGCTTTCTTGCTGTCCAATTTCTATTAAAGGTTCCTTTGTTCCCTAAGTCCAACTACTAAACTGGGGGATATTATGAAGGGCCTTCCGGAGCATCTGGATTCTGCCTAATAAAAAACATTTATTTTCATTGCAAAAAAA | induced a clear band of 721 bp | LNCaP |  |
| Antisense-5A: input RNA, SEQ ID NO: 13 (nucleic acid) antisense: TGTGCTCGCTTCGGCAGCACATATACTAACATTGGAACGATCCTGCAGGCCGCTCACCTGCCGCGCTCCAGGCGGCGCTCCCCGCCCCTCGCCCTCCGCCAGACAGGAGTGAGAGATGGAAGCTCGCGCCTACTC | loss of induction |  |  |
| Antisense-5B: input RNA, SEQ ID NO: 14 (nucleic acid, input RNA, chemistry not given here) antisense: TGTGCTCGCTTCGGCAGCACATATACTAACATTGGAACGATCCTGCAGCTTGAGCCATTCACCTGGCTAGGGTTACATTCCATATTGATGGTGACCCTGGCTGGGGGTTGAGACAGCCAATCC | loss of induction |  |  |
| Antisense-E1: input RNA, SEQ ID NO: 24 (nucleic acid) antisense: TGTGCTCGCTTCGGCAGCACATATACTAACATTGGAACGATCCTGCAGAGGGTATTCAGTATTACTATTTGGCTTAGATAAGCTGGTAGTTACTTGCTAAAATTAATCTTTATTATAAAGCAGAAAGCCGCATTCTGACATCACTCTCCATGGACAAAGATTCTTCGCTTGATCA | failed to induce fusion transcripts |  |  |
| Antisense-B2: input RNA, SEQ ID NO: 16 (nucleic acid) antisense: TGTGCTCGCTTCGGCAGCACATATACTAACATTGGAACGATCCTGCAGTGGCCTGAGCCTTGAAGAATGGGGTGTACTGGGTAAATCAAAATGGTGGGGAGCATTTCCAGATGGAGAAACTGCCCCTCCCCAGCCCGGACCCCGAGCCGGGACCCTGGTACCGGCGCCGCTCACC | complete loss of induction |  |  |
| Antisense-7: input RNA, SEQ ID NO: 10 (nucleic acid) antisense: TGTGCTCGCTTCGGCAGCACATATACTAACATTGGAACGATCCTGCAGCTTGAGCCATTCACCTGGCTAGGGTTACATTCCATATTGATGGTGACCCTGGCTGGGGGTTGAGACAGCCAATCCCGGACCCCGAGCCGGGACCCTGGTACCGGCGCCGCTCACCTGCCGCGCTCCAAGACAGGAGTGAGAGATGGAAGCTCGCGCCTACTC | loss of induction; also recorded: did not |  |  |
| Antisense-C1: input RNA, SEQ ID NO: 18 (nucleic acid) antisense: TGTGCTCGCTTCGGCAGCACATATACTAACATTGGAACGATCCTGCAGTGAGCTCATGCTATTCCTATGACATAGATGAGCACTGGGTAGACCCCGTCCTGGTAACACTATTCATGCACTAACCCCAGGCGGGGGCCGTGGAGGGCAGGCGGACTAGGAGCCAGCTTTGGGGACC | clearly induced fusion transcripts | LNCaP |  |
| Antisense-G1: input RNA, SEQ ID NO: 26 (nucleic acid) antisense: TGTGCTCGCTTCGGCAGCACATATACTAACATTGGAACGATCCTGCAGTTTATTCATGAGAAAATTCTGGCACAATGGAAAACCCTGGCAAGCAAAAGATAGGGGCAGCAGATGTCCTGGCCTACAAAGAACTCCAAGCCCATCGTCCCTAGAAAGCATGGTCTCCCATGACCCC | failed to induce fusion transcripts |  |  |
| Antisense-D1: input RNA, SEQ ID NO: 21 (nucleic acid) antisense: TGTGCTCGCTTCGGCAGCACATATACTAACATTGGAACGATCCTGCAGGAGAGACAGAGAGAGAGAGGCTGGTAGAGGGAAGAGACAGAAGAAAGATGAAGGGATAAGTGTCCAGAATCCCTGAGCGCTCGACCCTCGGGCGCACTCACCTGCCGCGCCGCGCTCCTCACACCCG | clearly induced fusion transcripts | LNCaP |  |
